These results are taken from US20050158748.

Series [1] relates to ribosomal protein S6 (in purified 40S ribosomal subunits from liver).
Series [2] has as its system synthetic peptide representing C-terminus of S6 protein.

For the substance “recombinant p70α^S6k (Flag-tag or EE-tag version, expressed in HEK293 cells)”, the “in vitro kinase reaction: phosphorylation of S6 protein in 40S subunits” value in series [1] is “p70β^S6k (p70β-II isoform) phosphorylates the S6 protein in vitro nearly as efficiently as p70α^S6k”. The “in vitro kinase reaction: phosphorylation of the synthetic peptide” value in series [2] is given as “also phosphorylates this peptide but with slightly lower efficiency than observed with p70α^S6k”.
